The target in assay [1] is T1, human CD3 expressed on cells (Jurkat cells; human primary T cells) (human, UniProt P07766 23-207; P04234 22-171; P09693 23-182).
T1 construct: whole, on cells
The experiment in a line: flow cytometry, 25 nM, Jurkat cells. As to the method: (§1) Purified antibodies were confirmed to bind CD3 expressed on cells using the CytoFLEX S or LX flow cytometers (Beckman Coulter). Antibodies were diluted to 25 nM in FACS buffer (PBS+2% FBS) and were incubated with CD3-expressing cells for 30 minutes at 4° C. […] The median fluorescence intensity of the binding signal for each antibody was normalized to the isotype control to obtain a fold over isotype value. An antibody with a fold over isotype (FOI) of ≥10 was considered to be positive for binding.
For orientation: Flow cytometry measures light scatter and fluorescence of single cells or particles in a stream.

For assay [2], the target named is T1, human CD3 expressed on cells (Jurkat …). The experiment in a line: flow cytometry, 25 nM, human primary T cells. On the procedure: as §1
Assay [3] concerns the target T2, cynomolgus monkey CD3 expressed on cyno primary T cells (cynomolgus monkey, UniProt Q95LI5 22-198; Q95LI8 22-171; Q95LI7 23-181).
T2 construct: whole, on cells; CD3 complex on purified cynomolgus monkey CD3 pan T cells; also called cyno CD3
The experiment in a line: flow cytometry, cyno primary T cells. On the procedure:
as §1

Assay [4] concerns the target T3, human CD3 expressed on cells (human, UniProt P07766 23-207; P04234 22-171; P09693 23-182).
T3 construct: whole, on cells; CD3 complex on Jurkat cells and on human primary T cells
The experiment in a line: flow cytometry, 25 nM. In outline:
(§2)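 Flow cytometric binding was measured after cells were incubated with antibody (25 nM, PBS+2% FBS) at 4° C for 30 minutes. Signals were normalized to isotype to yield FOI, with ≥10 scored positive.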

For assay [5], the target named is T4, cynomolgus monkey CD3 expressed on primary T cells (cynomolgus monkey, UniProt Q95LI5 22-198; Q95LI8 22-171; Q95LI7 23-181).
T4 construct: whole, on cells; CD3 complex on purified cynomolgus monkey T cells; also called cyno CD3
T4 sequence (Q95LI5 22-198, chain 1 of 3): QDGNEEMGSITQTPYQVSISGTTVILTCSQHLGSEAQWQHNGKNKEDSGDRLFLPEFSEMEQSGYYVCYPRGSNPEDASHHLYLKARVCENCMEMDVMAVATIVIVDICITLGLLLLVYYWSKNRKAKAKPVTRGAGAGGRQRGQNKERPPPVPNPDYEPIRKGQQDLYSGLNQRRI
T4 sequence (Q95LI8 22-171, chain 2 of 3): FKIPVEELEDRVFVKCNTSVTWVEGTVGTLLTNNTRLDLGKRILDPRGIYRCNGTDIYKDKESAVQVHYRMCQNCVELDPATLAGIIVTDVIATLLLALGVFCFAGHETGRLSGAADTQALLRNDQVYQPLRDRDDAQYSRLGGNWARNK
T4 sequence (Q95LI7 23-181, chain 3 of 3): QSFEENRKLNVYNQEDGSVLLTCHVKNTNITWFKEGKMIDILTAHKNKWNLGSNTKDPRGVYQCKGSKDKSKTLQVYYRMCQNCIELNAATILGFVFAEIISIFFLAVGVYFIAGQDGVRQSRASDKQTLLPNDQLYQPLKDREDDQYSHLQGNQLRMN
The experiment in a line: flow cytometry, 25 nM, cyno primary T cells. In outline: as §2

T2 sequence (Q95LI5 22-198, chain 1 of 3): as the sequence (Q95LI5 22-198, chain 1 of 3) above
T2 sequence (Q95LI8 22-171, chain 2 of 3): as the sequence (Q95LI8 22-171, chain 2 of 3) above
T2 sequence (Q95LI7 23-181, chain 3 of 3): as the sequence (Q95LI7 23-181, chain 3 of 3) above
T3 sequence (P07766 23-207, chain 1 of 3): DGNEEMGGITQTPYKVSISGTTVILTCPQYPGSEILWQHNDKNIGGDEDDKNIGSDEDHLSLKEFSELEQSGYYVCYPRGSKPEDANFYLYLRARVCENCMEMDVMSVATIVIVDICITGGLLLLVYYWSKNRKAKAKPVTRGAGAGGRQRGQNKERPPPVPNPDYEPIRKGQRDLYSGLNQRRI
T3 sequence (P04234 22-171, chain 2 of 3): as the sequence (Q95LI8 22-171, chain 2 of 3) above, with V5I, K15N, V20I, T32S, N33D, N34I, A64T, N74S, L83V, R141H counted along it
T3 sequence (P09693 23-182, chain 3 of 3): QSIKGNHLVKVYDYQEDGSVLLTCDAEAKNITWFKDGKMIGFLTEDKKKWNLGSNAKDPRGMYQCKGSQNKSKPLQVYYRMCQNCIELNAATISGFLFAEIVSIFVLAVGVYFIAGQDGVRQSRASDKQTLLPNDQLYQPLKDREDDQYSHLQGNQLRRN
T1 sequence (P07766 23-207, chain 1 of 3): as the sequence (P07766 23-207, chain 1 of 3) above
T1 sequence (P04234 22-171, chain 2 of 3): as the sequence (Q95LI8 22-171, chain 2 of 3) above, with V5I, K15N, V20I, T32S, N33D, N34I, A64T, N74S, L83V, R141H counted along it
T1 sequence (P09693 23-182, chain 3 of 3): as the sequence (P09693 23-182, chain 3 of 3) above

B1: mAb 172 (antibody, V domains shown)
VH: EVQLVESGGGLVQPGRSLRLSCTTSGFTFDDYTMHWVRQVPGKGLEWVSDISWNSGSVGYADSVKGRFTISRDNAKNSLYLQMNSLRAEDTALYYCVKDSSGYGHYFHYYMDVWGKGTTVTVSS
VL: DIQMTQSPSSLSASVGDRVTITCRASQSISNYLNWYQVKPGKAPKVLIYAASSLQSGVPSRFSGSGSGTDFTLTISSLQPEDFVSYYCHQSYNAPITFGQGTRLESK
notes: VH/VL only
Consider B1, for which the “Binding (FOI)” value in assay [1] was 111 FOI; in assay [2] it was 167 FOI.

B2: mAb 173 (antibody, V domains shown)
VH: EVQLVESGGGLVQPGRSLRLSCAASGFTFDDYTMHWVRQVPGKGLEWVSDISWNSGSVGYADSVKGRFTISRDNAKNSLYLQMNSLRAEDTALYYCVKDSSGYGHYFHYYMDVWGKGTTVTVSS
VL: DIQMTQSPSSLSASVGDRVTITCRASQSISNYLNWYQVKPGKAPKVLIYAASSLQSGVPSRFSGSGSGTDFTLTISSLQPEDFVSYYCHQSYNTPITFGQGTRLEIK
notes: VH/VL only
As to B2, the “Binding (FOI)” value in assay [1] was found to be 109 FOI; in assay [2] it was 169 FOI.

B3: mAb 174 (antibody, V domains shown)
VH: EVQLVESGGGLVQPGGSLRLSCAASGFTFSSNWMSWVRQAPGKGLEWVANIKQDGSEKYSVDSVKGRFTISRDNAKNSLYLQMNSLRAEDTAVYYCARDRSRNYYWYFDLWGRGTLVTVSS
VL: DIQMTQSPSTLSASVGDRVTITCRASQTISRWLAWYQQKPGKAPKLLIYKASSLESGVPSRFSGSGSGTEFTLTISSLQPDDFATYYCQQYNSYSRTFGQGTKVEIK
notes: VH/VL only
As to B3, the “Binding (FOI)” value in assay [1] amounted to 130 FOI; in assay [2] it was 231 FOI. The binding result in assay [3] was “no binding (tested: FOI <10 (FOI >=10 = positive); 25 nM)”.

B4: mAb 175 (antibody, V domains shown)
VH: EVELVESGGGLVQPGGSLRLSCAASGFTFSSNWMSWVRQAPGKGLEWVANIKQDGSEKYYVDSVKGRFTISRDNAKNSLYLKMNSLRAEDTAVYYCARDCSSNWYWYFDLWGRGTLVTVSS
VL: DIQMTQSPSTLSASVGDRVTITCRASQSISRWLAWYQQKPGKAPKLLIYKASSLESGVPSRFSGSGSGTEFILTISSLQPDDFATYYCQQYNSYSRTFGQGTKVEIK
notes: VH/VL only
On to B4, for which the “Binding (FOI)” value is 96.6 FOI in assay [1] and 118 FOI in assay [2]. In addition, in assay [3], the binding result is on record as “no binding (tested: FOI <10 (FOI >=10 = positive); 25 nM)”.

B5: mAb 137 (antibody, V domains shown)
VH: QVQLVESGGGVVQPGRSLRLSCAASGFTFSTYGMHWVRQAPGKGLEWVAVIWYDGSHKYYADSVKGRFTISRDNSKKTLYLQMNSLRAEDTGIYYCARTGISGNMSYFYFDHWGQGILVTVSS
VL: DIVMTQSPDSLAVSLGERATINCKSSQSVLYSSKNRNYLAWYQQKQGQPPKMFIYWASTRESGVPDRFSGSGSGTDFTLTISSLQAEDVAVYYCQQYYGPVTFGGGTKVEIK
As to B5, in assay [4], the “Human primary T Cell Binding (FOI)” value worked out at 158 FOI and the “Jurkat Cell Binding (FOI)” value is 151 FOI. The binding result in assay [5] is recorded as “no binding (tested: FOI >=10 = positive)”.

B6: mAb 273 (antibody, V domains shown)
VH: EVQLVESGGGLVQPGESLKLSCTASGFTFSVSAIHWVRQASGKGLEWVGRIRSKANSYATAYVASVKGRFTLSRDDSKNTAYLQMNSLKTEDTAVYYCSSYYFVSGTYYNHWGQGTLVTVSS
VL: DIQMTQSPSSLSASVGDRVTITCRASQGIRYDLGWYQQKPGRAPKRLIHSVSSLQSGVPSRFSGSGSGTEFTLTISSLQPEDFATYYCLQHNVNPCTFGQGTKLEIK
notes: VH/VL only
As for B6, the figures for the “Binding (FOI)” value in assay [1] and in assay [2] were 53.1 FOI and 24.2 FOI, respectively.

B7: mAb 188 (antibody, V domains shown)
VH: QVQLVESGGGVVQPGRSLRLSCAASGFTFSGYGMHWVRQAPGKGLEWVAIIYYNGKKEYYADSVKGRFTISRDNSKNTLYLQMNSLRAEDTAVYYCTRGEGYNWFDPWGQGTLVTVSS
VL: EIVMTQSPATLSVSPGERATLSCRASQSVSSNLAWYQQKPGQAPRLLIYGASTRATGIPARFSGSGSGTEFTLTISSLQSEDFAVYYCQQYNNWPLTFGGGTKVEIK
notes: VH/VL only
In the case of B7, the “Binding (FOI)” value in assay [1] was found to be 171 FOI; in assay [2], 216 FOI. Moreover, in assay [3], the binding result is given as “no binding (tested: FOI <10 (FOI >=10 = positive); 25 nM)”.

B8: mAb 189 (antibody, V domains shown)
VH: QVQLVESGGGVVQPGRSLRLSCAASGFTFSGYGMHWVRQAPGKGLEWVAIIYYDGKNKYYADSVKGRFTISRDNSKSTLYLQMNSLGADDTAVYYCTRGKGYNWFDPWGQGTLVTVSS
VL: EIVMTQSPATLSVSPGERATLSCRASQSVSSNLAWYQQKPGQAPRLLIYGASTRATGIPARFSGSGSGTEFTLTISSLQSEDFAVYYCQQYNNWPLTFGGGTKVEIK
notes: VH/VL only
B8: the “Binding (FOI)” value was found to be 165 FOI in assay [1] and 184 FOI in assay [2]. Besides, the binding result in assay [3] is given as “no binding (tested: FOI <10 (FOI >=10 = positive); 25 nM)”.

B9: mAb 285 (antibody, V domains shown)
VH: EVQLLESGGGLGQPGGSLRLSCAASGFTFSNYAMSWVRQAPGKGLEWVSVISGSGGDKNYADSVKGRFTISRDNSKNTLYLQMNSLRAEDTAVYYCAKKYSYYYYYMDVWGKGTTVTVSS
VL: SYELTQPLSVSVALGQTARITCGGNNIGSKDVHWYQQKPGQAPVLVIYRDSNRPSGIPERFSGSNSGNTATLTISSAQAGDEADYYCQVWDSRTAVFGGGTQLTAL
notes: VH/VL only
With B9, the “Binding (FOI)” value in assay [1] was 232 FOI; in assay [2] it was 229 FOI. In assay [3], the binding result is on record as “no binding (tested: FOI <10 (FOI >=10 = positive); 25 nM)”.

B10: mAb 170 (antibody, V domains shown)
VH: EVQLVESGGGLVRPGRSLRLSCAASGFTFDDYTMHWVRQAPGKGLEWVSGISWNSGSIGYADSVKGRFTISRDNAKNSLYLQMNSLRAEDTALYYCSKDSSGYGYYLNYSLDVWGKGTTVTVSS
VL: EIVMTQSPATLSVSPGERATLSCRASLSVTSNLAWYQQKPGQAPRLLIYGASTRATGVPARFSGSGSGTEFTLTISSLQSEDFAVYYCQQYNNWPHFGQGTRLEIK
notes: VH/VL only
Take B10: the “Binding (FOI)” value was determined as 117 FOI in assay [1] and 120 FOI in assay [2]. Besides, the binding result in assay [3] is recorded as “no binding (tested: FOI <10 (FOI >=10 = positive); 25 nM)”.

B11: mAb 287 (antibody, V domains shown)
VH: EVQLVESGGGVVRPGGSLRLSCAASGFTFDDYGMSWVRQAPGKGLEWVSGISWNGGSTGYADSVKGRFTISRDNAKNSLYLQMNSLRAEDTALYHCARDGVPVVKRRYYYYYMDVWGKGTTVTVSS
VL: EIVLTQSPDFQSVTPKEKVTITCRASQSIGSSLHWYQQKPDQSPKLLIKYASQSFSGVPSRFSGSGSGTDFTLTINSLEAEDAATYYCHQSASLPQTFGQGTKVEIK
notes: VH/VL only
Turning to B11, the “Binding (FOI)” value in assay [1] was 156 FOI; in assay [2] it was 107 FOI. For the same molecule, the binding result in assay [3] was “no binding (tested: FOI <10 (FOI >=10 = positive); 25 nM)”.

B12: mAb 141 (antibody, V domains shown)
VH: QVQLVQSGAEVKKPGASVKVSCKASGYTFTSYYIHWVRQAPGQGLDWMGIINPSGGITGYAQKLQGRVTMTRDTSTTTVYMELSSLRSDDTAVYYCARGVRGNYYYYYMDVWGKGTTVTVSS
VL: EIVLTQSPDFQSVTPKEKVTITCRASQSIGSKLHWYQQKPDQSPKLLIKYASQSFSGVPSRFSGSGSGTDFNLTINSLEAEDAATFYCHQSSGLPYTFGQGTKLEIK
For B12, in assay [4], the “Human primary T Cell Binding (FOI)” value stood at 310 FOI and the “Jurkat Cell Binding (FOI)” value is 183 FOI. The binding result in assay [5] is listed as “no binding (tested: FOI >=10 = positive)”.

B13: mAb 290 (antibody, V domains shown)
VH: EVQLVESGGGVVRPGGSLRLSCAASGFTFDDYGMSWVRQAPGKGLEWVSGISWNGGSTGYADSVKGRFTISRDNAKNSLYLQMNSLRAEDTALYHCARDGVPVVKRRYYYYYMDVWGKGTTVTVSS
VL: EIVLTQSPDFQSVTPKEKITITCRASQSIGSSLHWYQQKPDQSPKLLIKYASQSFSGVPSRFSGSGSGTDFTLTINSLEAEDAATYYCHQSASLPQTFGQGTKVEIK
notes: VH/VL only
On to B13, for which the “Binding (FOI)” value in assay [1] is 135 FOI; in assay [2], 99.8 FOI. In assay [3], the binding result is given as “no binding (tested: FOI <10 (FOI >=10 = positive); 25 nM)”.

B14: mAb 145 (antibody, V domains shown)
VH: QVQLVQSGAEVKKPGASVKVSCKASGYTFTNYYIHWVRQAPGQGLDWMGIINPSGGITGYAQKFQGRVTMTRDTSTTTVYMELSSLRSDDTAVYYCARGVRGNYYYYYMDVWGKGTTVTVSS
VL: EIVLTQSPDFQSVTPKEKVTITCRASQSIGSKLHWYQQKPDQSPKLLIKFASQSFSGVPSRFSGSGSGTDFNLTINSLEPEDAATFYCHQSSGLPYTFGQGTKLEIK
For B14, in assay [4], the “Human primary T Cell Binding (FOI)” value stood at 217 FOI and the “Jurkat Cell Binding (FOI)” value turned out to be 191 FOI. Besides, the binding result in assay [5] is “no binding (tested: FOI >=10 = positive)”.

B15: mAb 286 (antibody, V domains shown)
VH: EVKLVESGGGVVRPGGSLRLSCAASGFTFDDYGMSWVRQAPGKGLEWVSGISWNGGSTGYADSVKGRFTISRDNAKNSLYLQMNSLRAEDTALYHCARDGVPVVKRRYYYYYMDVWGKGTTVTVSS
VL: EIVLTQSPDFQSVTPKEKVTITCRASQSIGSSLHWYQQKPDQSPKLLIKYASQSFSGVPSRFSGRGSGTDFTLTINSLEAEDAATYYCHQSGSLPQTFGQGTKVEIK
notes: VH/VL only
For the molecule B15, the “Binding (FOI)” value in assay [1] turned out to be 232 FOI; in assay [2], 185 FOI. Also, in assay [3], the binding result is given as “no binding (tested: FOI <10 (FOI >=10 = positive); 25 nM)”.

B16: mAb 136 (antibody, V domains shown)
VH: QVQLVESGGGVVQPGRSLRLSCAASGFTFSIYGMHWVRQAPGKGLEWVAVIWHDGSNKYYADSVKGRFTISRDNSKNTLYLQMNSLRAEDTAVYYCARTGITGTKAYFYFDYWGQGTLVTVSS
VL: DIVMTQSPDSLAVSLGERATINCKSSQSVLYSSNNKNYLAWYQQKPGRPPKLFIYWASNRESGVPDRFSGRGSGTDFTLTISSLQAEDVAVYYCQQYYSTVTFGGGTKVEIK
For B16, in assay [4], the “Human primary T Cell Binding (FOI)” value was 86 FOI and the “Jurkat Cell Binding (FOI)” value was 90.9 FOI. In addition, in assay [5], the binding result is recorded as “no binding (tested: FOI >=10 = positive)”.

B17: mAb 142 (antibody, V domains shown)
VH: QVQLVESGGGVVQPGRSLRLSCAASGFTFSSYGMHWVRQAPGKGLEWVAVIWYDGSNKYYADSVKGRFTISRDNSKNTLYLQMNSLRAEDTAVYYCARTGITGTTAYFYFDSWGQGTLVTVSS
VL: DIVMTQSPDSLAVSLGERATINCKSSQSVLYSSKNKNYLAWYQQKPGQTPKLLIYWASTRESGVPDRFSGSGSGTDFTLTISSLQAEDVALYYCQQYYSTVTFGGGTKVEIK
Regarding B17, in assay [4], the “Human primary T Cell Binding (FOI)” value is 59.6 FOI and the “Jurkat Cell Binding (FOI)” value was determined as 65.5 FOI. Further, in assay [5], the binding result is given as “no binding (tested: FOI >=10 = positive)”.
